The target of this test is T1, XLF-6×His (human, UniProt Q9H9Q4 1-299).
T1 construct: XLF (NHEJ1), human, amplified from pGEX2TKP-XLF and subcloned into pHAT5; source: E. coli BL21-CodonPlus (DE3)-RIL, purified (HP His-trap, HiTrap Q HP)
As to the kind of experiment: BLI; XLF binding of XRCC4 1–164 and its mutants. The conditions noted are these: both partners purified. A general note: In BLI a coated tip is dipped into the sample, and binding shifts an interference pattern.

T1 sequence (Q9H9Q4 whole entry): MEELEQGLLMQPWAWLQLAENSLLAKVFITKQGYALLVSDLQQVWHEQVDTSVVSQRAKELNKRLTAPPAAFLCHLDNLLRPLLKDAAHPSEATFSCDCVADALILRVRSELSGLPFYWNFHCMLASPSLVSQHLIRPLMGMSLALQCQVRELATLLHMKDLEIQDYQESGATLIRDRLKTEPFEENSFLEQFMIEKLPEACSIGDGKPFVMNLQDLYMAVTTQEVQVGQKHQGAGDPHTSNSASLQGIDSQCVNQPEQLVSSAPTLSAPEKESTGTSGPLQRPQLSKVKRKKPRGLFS

B1: 6×His-XRCC4^1–164 (C-to-A) (domain or fragment, human, UniProt Q13426 1-164, looked up)
chain: MERKISRIHLVSEPSITHFLQVSWEKTLESGFVITLTDGHSAWTGTVSESEISQEADDMAMEKGKYVGELRKALLSGAGPADVYTFNFSKESAYFFFEKNLKDVSFRLGSFNLEKVENPAEVIRELIAYALDTIAENQAKNEHLQKENERLLRDWNDVQGRFEK
modifications: 15N-labelled where it was the observed protein in NMR
notes: pET-28a vector; also called XRCC4 head domain; not shown: 6×His, N-terminal, kept
As for B1, the binding result is reported as “binds”.

Source of the values: publication PMC9071424, “Microarray screening reveals two non-conventional SUMO-binding modules linked to DNA repair by non-homologous end-joining” (Nucleic Acids Research, 2022).
